Measured values reported in patent US20200165308A1 (published 2020).

Molecular target: Netrin-1 (NET1) from Mus musculus lacking the C-terminal domain (NP_032770, aa: 24-457) (Mus musculus, UniProt O09118 24-457)
Experiment: solid-phase binding assay

B1: full-length ectodomain of NEO1 (AAH54540, aa: 41-1107) (receptor)
chain: GAAATKSGSPPQSAGASVRTFTPFYFLVEPVDTLSVRGSSVILNCSAYSEPSPNIEWKKDGTFLNLESDDRRQLLPDGSLFISNVVHSKHNKPDEGFYQCVATVDNLGTIVSRTAKLTVAGLPRFTSQPEPSSVYVGNSAILNCEVNADLVPFVRWEQNRQPLLLDDRIVKLPSGTLVISNATEGDGGLYRCIVESGGPPKFSDEAELKVLQDPEEIVDLVFLMRPSSMMKVTGQSAVLPCVVSGLPAPVVRWMKNEEVLDTESSGRLVLLAGGCLEISDVTEDDAGTYFCIADNGNKTVEAQAELTVQVPPGFLKQPANIYAHESMDIVFECEVTGKPTPTVKWVKNGDVVIPSDYFKIVKEHNLQVLGLVKSDEGFYQCIAENDVGNAQAGAQLIILEHDVAIPTLPPTSLTSATTDHLAPATTGPLPSAPRDVVASLVSTRFIKLTWRTPASDPHGDNLTYSVFYTKEGVARERVENTSQPGEMQVTIQNLMPATVYIFKVMAQNKHGSGESSAPLRVETQPEVQLPGPAPNIRAYATSPTSITVTWETPLSGNGEIQNYKLYYMEKGTDKEQDIDVSSHSYTINGLKKYTEYSFRVVAYNKHGPGVSTQDVAVRTLSDVPSAAPQNLSLEVRNSKSIVIHWQPPSSTTQNGQITGYKIRYRKASRKSDVTETLVTGTQLSQLIEGLDRGTEYNFRVAALTVNGTGPATDWLSAETFESDLDETRVPEVPSSLHVRPLVTSIVVSWTPPENQNIVVRGYAIGYGIGSPHAQTIKVDYKQRYYTIENLDPSSHYVITLKAFNNVGEGIPLYESAVTRPHTVPDPTPMMPPVGVQASILSHDTIRITWADNSLPKHQKITDSRYYTVRWKTNIPANTKYKNANATTLSYLVTGLKPNTLYEFSVMVTKGRRSSTWSMTAHGATFELVPTSPPKDVTVVSKEGKPRTIIVNWQPPSEANGKITGYIIYYSTDVNAEIHDWVIEPVVGNRLTHQIQELTLDTPYYFKIQARNSKGMGPMSEAVQFRTPKALGSAGKGSRLPDLGSDYKPPMSGSNSPHGSPTSPLDSN
B1 was tested, and the Kd was 7.58 nM.
